Test results published in article PMC8169943.

Legend:
[1] = biological target: AdeS full cytoplasmic domain (HAMP-DHp-CA) (Acinetobacter baumannii); experiment: SEC
[2] = biological target: AdeS full cytoplasmic domain (HAMP-DHp-CA) (Acinetobacter baumannii); experiment: SAXS
[3] = biological target: AdeS histidine kinase transmitter domain (DHp-CA) (Acinetobacter baumannii); experiment: SEC
[4] = biological target: AdeS histidine kinase transmitter domain (DHp-CA) (Acinetobacter baumannii); experiment: SAXS
[5] = substrate: Nc1ncnc2c1ncn2[C@@H]1O[C@H](COP(=O)(O)OP(=O)(O)OP(=O)(O)O)[C@@H](O)[C@H]1O; experiment: purified protein; settings: autophosphorylation; hexameric cytoplasmic domain

Molecule: AdeS full cytoplasmic domain (HAMP-DHp-CA) (domain or fragment)
- stoichiometry N [1]: 6
- stoichiometry N [2]: 6

Molecule: AdeS histidine kinase transmitter domain (DHp-CA) (domain or fragment)
- stoichiometry N [3]: 2
- stoichiometry N [4]: 2

B1: AdeS cytoplasmic domain (HAMP-DHp-CA) (Acinetobacter baumannii) (protein)
chain: KRFIVPINFLAEAAKKISHGDLSARAYDNRIHFAEMSELLYNFNDMAQKLEVSVKNAQVWNAAIAHELRTPITILQGRLQGIIDGVFKPDEVLFKSLLNQVEVLSHLVEDLRTLSLVENQQLRLNYELFDFKAVVEKVLKAFEDRLDQAKLVPELDLTSTPVYCDRRRIEQVLIALIDNAIRYSHAGKLKISSEVVSQNWILKIEDEGPGIATEFQDDLFKPFFRLEESRNKEFGGTGLGLAVVHAIIVALKGTIQYSNQGSKSIFTIKISMNN
- Km [5]: 5.25 ± 0.20 µM
